pIC50, pKd: −log10 of the molar value. One block for each molecule: values may come before it.
Columns and labels:
[1] = molecular target: T1, recombinant GR-1 receptor (canine parietal cell gastrin receptor) (Canis lupus familiaris, UniProt P30552); assay: Competition binding of 125I-CCK-8 to intact GR-1 transfected COS-7 cells
T1 construct: expressed in transfected cells; host or cells: COS-7 cells transiently transfected with GR-1 in pCDNA-1
T1 sequence (P30552 1-453): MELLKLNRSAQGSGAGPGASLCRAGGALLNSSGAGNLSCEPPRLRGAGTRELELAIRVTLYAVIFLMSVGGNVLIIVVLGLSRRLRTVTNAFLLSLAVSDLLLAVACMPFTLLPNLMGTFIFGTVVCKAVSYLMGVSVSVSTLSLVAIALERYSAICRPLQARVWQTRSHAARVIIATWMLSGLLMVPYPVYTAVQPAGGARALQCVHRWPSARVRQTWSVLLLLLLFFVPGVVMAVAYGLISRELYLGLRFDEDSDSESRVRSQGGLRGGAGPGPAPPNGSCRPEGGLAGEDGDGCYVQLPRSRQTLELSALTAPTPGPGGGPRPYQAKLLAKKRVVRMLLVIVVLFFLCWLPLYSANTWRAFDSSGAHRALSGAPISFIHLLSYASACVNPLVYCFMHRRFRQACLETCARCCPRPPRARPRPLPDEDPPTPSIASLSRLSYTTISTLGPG
Protocol: COS-7 cells (1.5x 10⁶) were plated in 10 cm culture dishes (Nunc) and grown in DMEM/ 10% fetal calf serum, 5% CO₂ at 37°C. […] Twenty-four hours following transfection, cells were split into 24-well dishes (Nunc), 5000 cells/well. […] Equilibrium binding occurred after incubation for 80 min at 37°C. Cell monolayers were subsequently washed three times and bound radioactivity was quantified after cell hydrolysis in 1 N NaOH.

[2] = molecular target: T1, recombinant GR-1 receptor (canine parietal cell gastrin receptor); assay: Competition binding in isolated plasma membranes from GR-1 transfected COS-7 cells; conditions: isolated membranes from transiently transfected COS-7 cells, 60 min at 22°C; read-out: IC₅₀
Protocol: Binding parameters were also measured in isolated plasma membranes from COS-7 cells transfected with GR-1. Binding was performed for 60 min at 22°C.

[3] = molecular target: T2, human brain CCK-B receptor (Homo sapiens, UniProt P32239); assay: Competition binding of 125I CCK-8 to COS-7 cells transfected with hCCKB-pcDNA I; conditions: recombinant human CCK-B receptor
T2 construct: isolate the corresponding full length human CCK-B receptor cDNA from a fetal (week 23) human brain library; expressed in transfected cells; host or cells: COS-7 cells transiently transfected with hCCKB-pcDNA I
T2 sequence (P32239 1-447): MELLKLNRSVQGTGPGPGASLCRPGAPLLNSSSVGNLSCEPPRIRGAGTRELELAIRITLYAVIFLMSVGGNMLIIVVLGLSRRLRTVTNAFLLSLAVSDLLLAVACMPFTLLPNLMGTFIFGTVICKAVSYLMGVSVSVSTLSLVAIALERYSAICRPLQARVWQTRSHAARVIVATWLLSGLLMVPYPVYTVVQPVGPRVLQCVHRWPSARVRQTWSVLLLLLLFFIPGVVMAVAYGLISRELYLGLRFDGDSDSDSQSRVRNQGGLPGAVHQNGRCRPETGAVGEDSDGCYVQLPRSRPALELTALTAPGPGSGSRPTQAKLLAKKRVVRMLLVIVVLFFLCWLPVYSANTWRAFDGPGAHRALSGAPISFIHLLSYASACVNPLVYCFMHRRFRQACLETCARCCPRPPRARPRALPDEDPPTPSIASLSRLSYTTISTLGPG

[4] = molecular target: canine parietal cell gastrin receptor (recombinant, clone GR-1, expressed in transfected COS-7 cells) (canine); assay: competition against 125I-CCK-8, intact GR-1 transfected COS-7 cells
[5] = molecular target: canine parietal cell gastrin receptor (recombinant, clone GR-1, expressed in transfected COS-7 cells) (canine); assay: competition against 125I-CCK-8, isolated membranes of GR-1 transfected COS-7 cells
[6] = molecular target: canine parietal cell gastrin receptor (recombinant, clone GR-1, expressed in transfected COS-7 cells) (canine); assay: cell-based or functional assay
[7] = molecular target: gastrin receptor on native canine parietal cells (canine); assay: radioligand saturation binding, native parietal cells
[8] = molecular target: canine parietal cell gastrin receptor (recombinant, clone GR-1, expressed in transfected COS-7 cells) (canine); assay: radioligand saturation binding, GR-1 transfected COS-7 cells
[9] = molecular target: canine parietal cell gastrin receptor (recombinant, clone GR-1, expressed in transfected COS-7 cells) (canine); assay: 125I-CCK-8 binding to GR-1 transfected COS-7 cells, no competitor (FIG. 3)

pIC50 ([1]; intact GR-1 transfected COS-7 cells, 40 pM 125I-CCK-8 radioligand, 80 min at 37°C, read-out: IC₅₀): 8.85 | pIC50 [2]: 8.82
Molecule: CSCC[C@H](NC(=O)[C@H](Cc1ccc(O)cc1)NC(=O)[C@@H](N)CC(=O)O)C(=O)NCC(=O)N[C@@H](Cc1c[nH]c2ccccc12)C(=O)N[C@@H](CCSC)C(=O)N[C@@H](CC(=O)O)C(=O)N[C@@H](Cc1ccccc1)C(N)=O [CCK-8-desulfate]

pIC50 ([1]; read-out: IC₅₀): 7.72
Molecule: CN1C(=O)[C@@H](NC(=O)c2cc3ccccc3[nH]2)N=C(c2ccccc2)c2ccccc21 [L364,718]

Molecule: Cc1cccc(NC(=O)N[C@@H]2N=C(c3ccccc3)c3ccccc3N(C)C2=O)c1 [L365,260]
pIC50 [1]: 6.89 | higher affinity than L364,718 [3]: approximately 40 fold

pIC50 [4]: 10.05 | pIC50 [5]: 10.10
Molecule: CCK-8 (from UniProt P06307 96-103) (peptide)

pIC50 [5]: 8.82
Molecule: CCK-8-desulfate (from UniProt P06307 96-103) (peptide)

free cytosolic calcium, [Ca²⁺] [6]: 142 nM | free cytosolic calcium, [Ca²⁺], after chelation of extracellular calcium by EGTA (2.5 mM) [6]: 88.5 nM | level of Ins-1,3,4,5-P₄, increase [6]: 272% | level of Ins-1,4,5-P₃, increase over control [6]: 741% | pIC50 [4]: 9.59 | pIC50 [5]: 9.40
Molecule: gastrin I (from UniProt P01350 76-92) (peptide)

pKd [7]: 9.57 | pKd [8]: 10.10 | Maximum binding in the absence of competitor (100%) [9]: 5.2 pM
Molecule: ¹²⁵I-CCK-8 (from UniProt P06307 96-103) (peptide)
